Assay results published in publication PMC4804749.

Target: His111 (UniProt position 111, …)
Assay: NMR
Details: 288 K

Protein: KTNMKHMAGA [Prion protein fragment PrP(106-115) (Homo sapiens)]
- pKa: ∼5
- pKa (Free peptide, no copper, 0.3 mM peptide): 6.2
